According to US20250025505A1 (BIONTECH, published 2025):

Legend:
Experiment in all cases: recognition by CLDN6 CAR-T cells, non-clinical study; assay not described
CLDN3 = target: T1, CLDN3 (UniProt O15551 1-220, limits assumed)
T1 construct: also called claudin 3
T1 sequence (looked up): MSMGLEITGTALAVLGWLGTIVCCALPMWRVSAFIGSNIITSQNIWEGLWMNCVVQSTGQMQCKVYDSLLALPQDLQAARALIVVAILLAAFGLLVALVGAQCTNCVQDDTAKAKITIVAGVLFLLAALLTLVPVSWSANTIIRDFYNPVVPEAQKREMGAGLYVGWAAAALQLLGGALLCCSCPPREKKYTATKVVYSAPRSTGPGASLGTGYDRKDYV

CLDN4 = target: T2, CLDN4 (UniProt O14493 1-209, limits assumed)
T2 construct: also called claudin 4
T2 sequence (looked up): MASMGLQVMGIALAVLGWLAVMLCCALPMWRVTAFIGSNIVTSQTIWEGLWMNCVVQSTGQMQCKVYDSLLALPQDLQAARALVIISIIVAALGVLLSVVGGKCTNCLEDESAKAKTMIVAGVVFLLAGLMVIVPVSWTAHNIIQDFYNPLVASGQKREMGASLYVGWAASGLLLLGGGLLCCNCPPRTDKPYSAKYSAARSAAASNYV

CLDN9 = target: T3, CLDN9 (UniProt O95484 1-217, limits assumed)
T3 construct: also called claudin 9
T3 sequence (looked up): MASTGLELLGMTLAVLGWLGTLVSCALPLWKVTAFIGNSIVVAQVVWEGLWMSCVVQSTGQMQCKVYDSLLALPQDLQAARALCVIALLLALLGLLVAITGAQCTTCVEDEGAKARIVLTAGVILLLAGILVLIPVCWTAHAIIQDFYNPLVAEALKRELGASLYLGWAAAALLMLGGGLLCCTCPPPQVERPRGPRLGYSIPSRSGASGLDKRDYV

Measured: binding result

B1: CLDN6-CAR-CD8h-BBz (other)
chain: EVQLQQSGPELVKPGASMKISCKASGYSFTGYTMNWVKQSHGKNLEWIGLINPYNGGTIYNQKFKGKATLTVDKSSSTAYMELLSLTSEDSAVYYCARDYGFVLDYWGQGTTLTVSSGGGGSGGGGSGGGGSDIVLTQSPSIMSVSPGEKVTITCSASSSVSYMHWFQQKPGTSPKLSIYSTSNLASGVPARFSGRGSGTSYSLTISRVAAEDAATYYCQQRSNYPPWTFGGGTKLEIKRSDPATTTPAPRPPTPAPTIASQPLSLRPEACRPAAGGAVHTRGLDFACDIYIWAPLAGTCGVLLLSLVITLYCKRGRKKLLYIFKQPFMRPVQTTQEEDGCSCRFPEEEEGGCELRVKFSRSADAPAYKQGQNQLYNELNLGRREEYDVLDKRRGRDPEMGGKPRRKNPQEGLYNELQKDKMAEAYSEIGMKGERRRGKGHDGLYQGLSTATKDTYDALHMQALPPR
notes: Chimeric antigen receptor, tested on the surface of retrovirally transduced human (or murine) T cells; also called CLDN6-CAR-BBz
no binding: all assays above
